In PMC8092703, “Structural Basis for the Shared Neutralization Mechanism of Three Classes of Human Papillomavirus Type 58 Antibodies with Disparate Modes of Binding” (Journal of Virology, 2021):

What was measured:
[1] = target: T1, HPV58 pseudovirus (PsV58) capsid (human papillomavirus type 58, UniProt P26535 1-524; P26538 1-472); test: cell-based or functional assay
T1 sequence 1: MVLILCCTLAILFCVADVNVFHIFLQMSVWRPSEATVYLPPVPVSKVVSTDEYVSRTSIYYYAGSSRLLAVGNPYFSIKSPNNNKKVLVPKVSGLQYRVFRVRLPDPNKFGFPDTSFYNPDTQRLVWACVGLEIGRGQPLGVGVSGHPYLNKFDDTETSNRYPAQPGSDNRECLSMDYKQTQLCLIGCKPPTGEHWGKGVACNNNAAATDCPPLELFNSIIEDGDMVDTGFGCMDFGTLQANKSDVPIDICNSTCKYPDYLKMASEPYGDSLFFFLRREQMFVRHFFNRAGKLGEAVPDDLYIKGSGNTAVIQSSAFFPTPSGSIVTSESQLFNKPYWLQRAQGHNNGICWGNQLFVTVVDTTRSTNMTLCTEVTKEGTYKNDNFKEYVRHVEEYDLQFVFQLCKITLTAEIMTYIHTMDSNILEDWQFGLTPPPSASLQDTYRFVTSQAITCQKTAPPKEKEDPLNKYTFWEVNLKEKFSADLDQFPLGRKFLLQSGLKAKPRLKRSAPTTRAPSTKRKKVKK
T1 sequence 2: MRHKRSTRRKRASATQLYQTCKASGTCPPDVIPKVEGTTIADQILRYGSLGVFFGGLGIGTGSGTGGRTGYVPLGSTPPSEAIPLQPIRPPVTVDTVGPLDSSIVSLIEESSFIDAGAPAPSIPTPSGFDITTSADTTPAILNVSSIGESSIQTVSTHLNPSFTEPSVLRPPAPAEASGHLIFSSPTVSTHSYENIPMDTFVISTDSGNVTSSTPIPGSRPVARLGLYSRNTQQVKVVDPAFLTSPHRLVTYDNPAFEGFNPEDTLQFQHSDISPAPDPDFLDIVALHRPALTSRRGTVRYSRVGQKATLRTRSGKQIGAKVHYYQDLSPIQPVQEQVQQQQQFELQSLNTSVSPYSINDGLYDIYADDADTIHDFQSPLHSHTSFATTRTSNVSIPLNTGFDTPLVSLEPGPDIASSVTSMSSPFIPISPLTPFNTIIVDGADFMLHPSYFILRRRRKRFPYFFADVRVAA

[2] = target: HPV58 virus-like particles (VLPs) self-assembled from recombinant HPV58 L1 (human papillomavirus type 58, UniProt P26535 1-524, The printed source is GenBank AFS33402.1, which may differ from P26535 at isolate-variant positions. The start is taken by convention at MSVWRPSE (Met27 of P26535), and paper numbering + 26 = P26535 n); test: ELISA; inhibition ELISA; HPV58 VLPs coated; diluted monoclonal antibody 1 h at 37°C, then rabbit standard antiserum against HPV58 VLPs 30 min at 37°C; HRP goat anti-rabbit IgG; inhibition rate; conditions: both partners purified
[3] = target: T2, HPV58 pseudovirus (PsV58) capsid (human papillomavirus type 58, UniProt P26535 1-524; P26538 1-472, T=7d capsid of 72 L1 pentamers. L2 copy number is unknown and no L2 density was seen. Expressed from p58sheLL, whose L1 and L2 may carry isolate-variant residues.); test: cell-based or functional assay
[4] = target: T2, HPV58 pseudovirus (PsV58) capsid; test: cryo-EM structure; purified PsV58 mixed with Fab in 1.5-fold excess (pseudovirus-Fab molar ratio 1:540), 37°C for 2 h; icosahedral and 2-fold subparticle reconstruction; conditions: both partners purified

B1: nAb A4B4 (anti-HPV58 neutralizing monoclonal antibody, full length) (antibody, V domains shown)
VH: QVTLKESGPGILQPSQTLSLTCSFSGFSLSTSGMGVGWIRQPSGKGLEWLAHIWWNDDKNYHPALKSRLTISKDTSSNRVFLNIASVDTADTATYYCARIHYVTDALDYWGQGTSVTVS
VL: DIVMSQSPSSLAVSVGEKVTMSCKSSQSLLYSSIQKNYLAWYQQKPGQSPKLLIYWASIRESGVPDRFTGSGSGTDFTLTISSVKAEDLAVYYCQRYYGYPWTFGGGTKLEIKR
notes: variable domain of the heavy chain of nAb A4B4; variable domain of the light chain of nAb A4B4; Mouse IgG2a; source: mouse hybridoma, ascites of BALB/c mice, purified (protein A-agarose)
neutralization titer, pseudovirus-based neutralization assay in 293FT cells (first well 1 μg/ml nAb, 2-fold dilutions) [1]: 12800
inhibition rate of the nAb against rabbit antiserum to HPV58 VLPs [2]: 71%

B2: Fab fragment of nAb A4B4 (Fab, V domains shown)
VH: QVTLKESGPGILQPSQTLSLTCSFSGFSLSTSGMGVGWIRQPSGKGLEWLAHIWWNDDKNYHPALKSRLTISKDTSSNRVFLNIASVDTADTATYYCARIHYVTDALDYWGQGTSVTVS
VL: DIVMSQSPSSLAVSVGEKVTMSCKSSQSLLYSSIQKNYLAWYQQKPGQSPKLLIYWASIRESGVPDRFTGSGSGTDFTLTISSVKAEDLAVYYCQRYYGYPWTFGGGTKLEIKR
notes: variable domain of the heavy chain of nAb A4B4; variable domain of the light chain of nAb A4B4; Fab of a mouse IgG2a; the Fab model in the structure is a homology model; also called Fab A4B4; A4B4 Fab; source: papain digest of the purified nAb, separated from Fc on a TSKgel DEAE-5PW column
IC50 of neutralization of PsV58 by the Fab form [3]: 1.28 µg/mL
stoichiometry N [4]: 4 Fabs per asymmetric unit

B3: nAb 5G9 (anti-HPV58 neutralizing monoclonal antibody, full length) (antibody, V domains shown)
VH: EVMLVESGGGLVKPGGSLKLSCVASGFTFSDYAMSWGRQTPEKRLEWVATISSGGVSTYHPDSVKGRFTMSRDNAKNTLYLQMSSLRSEDTAKYYCARGGGRYAMDYWGQGTSVTVS
VL: DVQITQSPSYLAASPGETITINCRASKSINKYLAWYQEKPGTTNKLLIYSGSTLQSGIPSRFSGRGSGTDFTLTISSLEPEDLAVYYCQQYNEYPWTFGGGTKLEIKR
notes: variable domain of the heavy chain of nAb 5G9; variable domain of the light chain of nAb 5G9; Mouse IgG2a; source: mouse hybridoma, ascites of BALB/c mice, purified (protein A-agarose)
neutralization titer, pseudovirus-based neutralization assay in 293FT cells (first well 1 μg/ml nAb, 2-fold dilutions) [1]: 410000
inhibition rate of the nAb against rabbit antiserum to HPV58 VLPs [2]: 59%

B4: Fab fragment of nAb 5G9 (Fab, V domains shown)
VH: EVMLVESGGGLVKPGGSLKLSCVASGFTFSDYAMSWGRQTPEKRLEWVATISSGGVSTYHPDSVKGRFTMSRDNAKNTLYLQMSSLRSEDTAKYYCARGGGRYAMDYWGQGTSVTVS
VL: DVQITQSPSYLAASPGETITINCRASKSINKYLAWYQEKPGTTNKLLIYSGSTLQSGIPSRFSGRGSGTDFTLTISSLEPEDLAVYYCQQYNEYPWTFGGGTKLEIKR
notes: variable domain of the heavy chain of nAb 5G9; variable domain of the light chain of nAb 5G9; Fab of a mouse IgG2a; the Fab model in the structure is a homology model; also called Fab 5G9; 5G9 Fab; source: papain digest of the purified nAb, separated from Fc on a TSKgel DEAE-5PW column
stoichiometry N [4]: 1 Fab per capsomer

B5: nAb 2H3 (anti-HPV58 neutralizing monoclonal antibody, full length) (antibody, V domains shown)
VH: QVQLLQSGAELVRPGSSVKISCKASGYVFTSYWMHWVKQRPGQGLEWIGQIYPGDGGTHYNGNFRDKATLTADKSSSTAYMHLSSLTSEDSAVYFCARKIYDGYGFSYWGQGTLVTVS
VL: DIQMTQSPASLSVSVGETVTITCRASENIYSNLIWYQQKQGKSPQLLVYAATNLADGVPSRFSGSGSGTQYSLKINSLQSEDFGSYYCQHFWGTPLTFGAGTKLEIKR
notes: variable domain of the heavy chain of nAb 2H3; variable domain of the light chain of nAb 2H3; Mouse IgG1; source: mouse hybridoma, ascites of BALB/c mice, purified (protein A-agarose)
neutralization titer, pseudovirus-based neutralization assay in 293FT cells (first well 1 μg/ml nAb, 2-fold dilutions) [1]: 51200
inhibition rate of the nAb against rabbit antiserum to HPV58 VLPs [2]: 87%

B6: Fab fragment of nAb 2H3 (Fab, V domains shown)
VH: QVQLLQSGAELVRPGSSVKISCKASGYVFTSYWMHWVKQRPGQGLEWIGQIYPGDGGTHYNGNFRDKATLTADKSSSTAYMHLSSLTSEDSAVYFCARKIYDGYGFSYWGQGTLVTVS
VL: DIQMTQSPASLSVSVGETVTITCRASENIYSNLIWYQQKQGKSPQLLVYAATNLADGVPSRFSGSGSGTQYSLKINSLQSEDFGSYYCQHFWGTPLTFGAGTKLEIKR
notes: variable domain of the heavy chain of nAb 2H3; variable domain of the light chain of nAb 2H3; Fab of a mouse IgG1; the Fab model in the structure is a homology model; also called Fab 2H3; 2H3 Fab; source: papain digest of the purified nAb, separated from Fc on a TSKgel DEAE-5PW column
stoichiometry N [4]: 4 Fabs per asymmetric unit
